# From patent US11325966
# Key:
# Experiment in all cases: cell-based or functional assay
# [1] = target: HIV-1 Env of pseudovirus 1054_07_TC4_1499 (HIV-1)
# [2] = target: HIV-1 Env of pseudovirus Ce1176_A3 (HIV-1)
# [3] = target: HIV-1 Env of pseudovirus Du172.17 (HIV-1)
# [4] = target: HIV-1 Env of pseudovirus 263-8 (HIV-1)
# [5] = target: HIV-1 Env of pseudovirus 9004SS_A3_4 (HIV-1)
# [6] = target: HIV-1 Env of pseudovirus BJOX025000.01.1 (HIV-1)
# [7] = target: HIV-1 Env of pseudovirus 246F C1G (HIV-1)
# [8] = target: HIV-1 Env of pseudovirus R2184.c04 (HIV-1)
# [9] = target: HIV-1 Env of pseudovirus X1254_c3 (HIV-1)
# [10] = target: HIV-1 Env of pseudovirus 89-F1_2_25 (HIV-1)
# [11] = target: HIV-1 Env of pseudovirus CNE17 (HIV-1)
# [12] = target: HIV-1 Env of pseudovirus T257-31 (HIV-1)
# [13] = target: HIV-1 Env of pseudovirus 0815.v3.c3 (HIV-1)
# [14] = target: HIV-1 Env of pseudovirus Ce1086_B2 (HIV-1)
# [15] = target: HIV-1 Env of pseudovirus BJOX009000.02.4 (HIV-1)
# [16] = target: HIV-1 Env of pseudovirus C4118.c09 (HIV-1)
# [17] = target: HIV-1 Env of pseudovirus ZM109F.PB4 (HIV-1)
# [18] = target: HIV-1 Env of pseudovirus BF1266.431a (HIV-1)
# [19] = target: HIV-1 Env of pseudovirus Ce0682_E4 (HIV-1)
# [20] = target: HIV-1 Env of pseudovirus CNE52 (HIV-1)
# [21] = target: HIV-1 Env of pseudovirus 620345.c01 (HIV-1)
# [22] = target: HIV-1 Env of pseudovirus TRO.11 (HIV-1)
# [23] = target: HIV-1 Env of pseudovirus Ce2060_G9 (HIV-1)
# [24] = target: HIV-1 Env of pseudovirus 6540.v4.c1 (HIV-1)
# [25] = target: HIV-1 Env of pseudovirus CNE30 (HIV-1)
# [26] = target: HIV-1 Env of pseudovirus Q769.d22 (HIV-1)
# [27] = target: HIV-1 Env of pseudovirus 1006_11_C3_1601 (HIV-1)
# [28] = target: HIV-1 Env of pseudovirus HIV-16055-2.3 (HIV-1)
# [29] = target: HIV-1 Env of pseudovirus Ce0393_C3 (HIV-1)
# [30] = target: HIV-1 Env of pseudovirus HIV-16845-2.22 (HIV-1)
# [31] = target: HIV-1 Env of pseudovirus BJOX028000.10.3 (HIV-1)
# [32] = target: HIV-1 Env of pseudovirus CNE53 (HIV-1)
# [33] = target: HIV-1 Env of pseudovirus 249M B10 (HIV-1)
# [34] = target: HIV-1 Env of pseudovirus 1056_10_TA11_1826 (HIV-1)
# [35] = target: HIV-1 Env of pseudovirus ZM249M.PL1 (HIV-1)
# [36] = target: HIV-1 Env of pseudovirus Ce703010054_2A2 (HIV-1)
# [37] = target: HIV-1 Env of pseudovirus 928-28 (HIV-1)
# [38] = target: HIV-1 Env of pseudovirus 211-9 (HIV-1)
# [39] = target: HIV-1 Env of pseudovirus TRJO4551.58 (HIV-1)
# [40] = target: HIV-1 Env of pseudovirus Ce2010_F5 (HIV-1)
substance,measurement,setting,value
354BG8 (antibody),IC50 in TZM-bl assay,[1],0.048 µg/mL
same,IC80 in TZM-bl assay,[1],0.222 µg/mL
same,IC50 in TZM-bl assay,[2],0.022 µg/mL
same,IC80 in TZM-bl assay,[2],0.07 µg/mL
same,IC50 in TZM-bl assay,[3],0.049 µg/mL
same,IC80 in TZM-bl assay,[3],0.194 µg/mL
same,IC50 in TZM-bl assay,[4],0.416 µg/mL
same,IC80 in TZM-bl assay,[4],5.71 µg/mL
same,IC50 in TZM-bl assay,[5],0.012 µg/mL
same,IC80 in TZM-bl assay,[5],0.032 µg/mL
same,IC50 in TZM-bl assay,[6],> 10 µg/mL
same,IC80 in TZM-bl assay,[6],> 10 µg/mL
same,IC50 in TZM-bl assay,[7],0.035 µg/mL
same,IC80 in TZM-bl assay,[7],0.119 µg/mL
same,IC50 in TZM-bl assay,[8],> 10 µg/mL
same,IC80 in TZM-bl assay,[8],> 10 µg/mL
same,IC50 in TZM-bl assay,[9],0.063 µg/mL
same,IC80 in TZM-bl assay,[9],0.239 µg/mL
same,IC50 in TZM-bl assay,[10],> 10 µg/mL
same,IC80 in TZM-bl assay,[10],> 10 µg/mL
same,IC50 in TZM-bl assay,[11],1.18 µg/mL
same,IC80 in TZM-bl assay,[11],4.85 µg/mL
same,IC50 in TZM-bl assay,[12],> 10 µg/mL
same,IC80 in TZM-bl assay,[12],> 10 µg/mL
same,IC50 in TZM-bl assay,[13],0.043 µg/mL
same,IC80 in TZM-bl assay,[13],0.197 µg/mL
same,IC50 in TZM-bl assay,[14],> 10 µg/mL
same,IC80 in TZM-bl assay,[14],> 10 µg/mL
same,IC50 in TZM-bl assay,[15],> 10 µg/mL
same,IC80 in TZM-bl assay,[15],> 10 µg/mL
same,IC50 in TZM-bl assay,[16],> 10 µg/mL
same,IC80 in TZM-bl assay,[16],> 10 µg/mL
same,IC50 in TZM-bl assay,[17],> 10 µg/mL
same,IC80 in TZM-bl assay,[17],> 10 µg/mL
same,IC50 in TZM-bl assay,[18],> 10 µg/mL
same,IC80 in TZM-bl assay,[18],> 10 µg/mL
same,IC50 in TZM-bl assay,[19],> 10 µg/mL
same,IC80 in TZM-bl assay,[19],> 10 µg/mL
same,IC50 in TZM-bl assay,[20],1.99 µg/mL
same,IC80 in TZM-bl assay,[20],9.76 µg/mL
same,IC50 in TZM-bl assay,[21],> 10 µg/mL
same,IC80 in TZM-bl assay,[21],> 10 µg/mL
same,IC50 in TZM-bl assay,[22],0.011 µg/mL
same,IC80 in TZM-bl assay,[22],0.039 µg/mL
same,IC50 in TZM-bl assay,[23],> 10 µg/mL
same,IC80 in TZM-bl assay,[23],> 10 µg/mL
same,IC50 in TZM-bl assay,[24],> 10 µg/mL
same,IC80 in TZM-bl assay,[24],> 10 µg/mL
same,IC50 in TZM-bl assay,[25],0.261 µg/mL
same,IC80 in TZM-bl assay,[25],0.678 µg/mL
same,IC50 in TZM-bl assay,[26],> 10 µg/mL
same,IC80 in TZM-bl assay,[26],> 10 µg/mL
same,IC50 in TZM-bl assay,[27],0.002 µg/mL
same,IC80 in TZM-bl assay,[27],0.006 µg/mL
same,IC50 in TZM-bl assay,[28],> 10 µg/mL
same,IC80 in TZM-bl assay,[28],> 10 µg/mL
same,IC50 in TZM-bl assay,[29],> 10 µg/mL
same,IC80 in TZM-bl assay,[29],> 10 µg/mL
same,IC50 in TZM-bl assay,[30],0.727 µg/mL
same,IC80 in TZM-bl assay,[30],3.93 µg/mL
same,IC50 in TZM-bl assay,[31],> 10 µg/mL
same,IC80 in TZM-bl assay,[31],> 10 µg/mL
same,IC50 in TZM-bl assay,[32],0.013 µg/mL
same,IC80 in TZM-bl assay,[32],0.058 µg/mL
same,IC50 in TZM-bl assay,[33],> 10 µg/mL
same,IC80 in TZM-bl assay,[33],> 10 µg/mL
same,IC50 in TZM-bl assay,[34],0.038 µg/mL
same,IC80 in TZM-bl assay,[34],0.168 µg/mL
same,IC50 in TZM-bl assay,[35],> 10 µg/mL
same,IC80 in TZM-bl assay,[35],> 10 µg/mL
same,IC50 in TZM-bl assay,[36],> 10 µg/mL
same,IC80 in TZM-bl assay,[36],> 10 µg/mL
same,IC50 in TZM-bl assay,[37],0.616 µg/mL
same,IC80 in TZM-bl assay,[37],2.4 µg/mL
same,IC50 in TZM-bl assay,[38],0.065 µg/mL
same,IC80 in TZM-bl assay,[38],0.403 µg/mL
same,IC50 in TZM-bl assay,[39],0.057 µg/mL
same,IC80 in TZM-bl assay,[39],0.218 µg/mL
same,IC50 in TZM-bl assay,[40],> 10 µg/mL
same,IC80 in TZM-bl assay,[40],> 10 µg/mL
